Measurements taken from the Immune Epitope Database (IEDB).

Key:
Test in all cases: IEDB peptide-MHC binding, purified MHC/competitive/radioactivity; ≥ and ≤ were set here for values at or beyond the usual limits of such assays
HLA-A*02:01 = biological target: HLA-A*02:01
HLA-A*02:02 = biological target: HLA-A*02:02
HLA-A*02:03 = biological target: HLA-A*02:03
HLA-A*02:06 = biological target: HLA-A*02:06
HLA-A*68:02 = biological target: HLA-A*68:02
[1] = source organism: Vaccinia virus WR
[2] = source organism: Mammarenavirus choriomeningitidis
[3] = source organism: Influenza A virus
[4] = source organism: Hepacivirus hominis
[5] = source organism: Mammarenavirus lassaense

Sequence | IC50 (HLA-A*02:01; [1]) [nM] | IC50 (HLA-A*02:02; [1]) [nM] | IC50 (HLA-A*02:03; [1]) [nM] | IC50 (HLA-A*02:06; [1]) [nM] | IC50 (HLA-A*68:02; [1]) [nM] | other results
TTFITVLTSV | 271 | 1120 | 16 | 166 | 15 | 
CVMYASALV |  |  |  |  |  | IC50 (HLA-A*02:01; source organism: SARS-CoV1): 9.3 nM; IC50 (HLA-A*02:02; source organism: SARS-CoV1): 4.5 nM; IC50 (HLA-A*02:03; source organism: SARS-CoV1): 2.9 nM; IC50 (HLA-A*02:06; source organism: SARS-CoV1): 7.4 nM; IC50 (HLA-A*68:02; source organism: SARS-CoV1): 0.89 nM
RVLYDEFVTI | 28 | 153 | 178 | 6.6 | 1640 | 
NIFMTLVPV | 11 | 86 | 6.4 | 227 | 2.6 | 
IVCIVAAVII | 1960 | 1460 | 1590 | 3550 | 2980 | 
ILYYGANGST | 290 | 341 | 39 | 1840 | 3830 | 
RNHLRDLMGV |  |  |  |  |  | IC50 (HLA-A*02:01; [2]): 113 nM; IC50 (HLA-A*02:02; [2]): 428 nM; IC50 (HLA-A*02:03; [2]): 733 nM; IC50 (HLA-A*02:06; [2]): 107 nM; IC50 (HLA-A*68:02; [2]): 2820 nM
IITILQDIV | 109 | 827 | 666 | 658 | 1070 | 
MQIRGFVYFV |  |  |  |  |  | IC50 (HLA-A*02:01; [3]): 15 nM; IC50 (HLA-A*02:02; [3]): 19 nM; IC50 (HLA-A*02:03; [3]): 3.6 nM; IC50 (HLA-A*02:06; [3]): 10 nM; IC50 (HLA-A*68:02; [3]): 25 nM
LMANLAPHLL |  |  |  |  |  | IC50 (HLA-A*02:01; source organism: SARS-CoV1): 30 nM; IC50 (HLA-A*02:02; source organism: SARS-CoV1): 0.23 nM; IC50 (HLA-A*02:03; source organism: SARS-CoV1): 1.5 nM; IC50 (HLA-A*02:06; source organism: SARS-CoV1): 115 nM; IC50 (HLA-A*68:02; source organism: SARS-CoV1): 1170 nM
LLLWISVKV |  |  |  |  |  | IC50 (HLA-A*02:01; source organism: SARS-CoV1): 13 nM; IC50 (HLA-A*02:02; source organism: SARS-CoV1): 94 nM; IC50 (HLA-A*02:03; source organism: SARS-CoV1): 198 nM; IC50 (HLA-A*02:06; source organism: SARS-CoV1): 10 nM; IC50 (HLA-A*68:02; source organism: SARS-CoV1): 2740 nM
LIVNSVLLFL |  |  |  |  |  | IC50 (HLA-A*02:01; source organism: SARS-CoV1): 27 nM; IC50 (HLA-A*02:02; source organism: SARS-CoV1): 3.7 nM; IC50 (HLA-A*02:03; source organism: SARS-CoV1): 90 nM; IC50 (HLA-A*02:06; source organism: SARS-CoV1): 11 nM; IC50 (HLA-A*68:02; source organism: SARS-CoV1): 169 nM
NIVTFINDYA | 827 | 62 | 245 | 351 | 82 | 
FISPASISSV | 1.4 | 3 | 0.11 | 2 | 17 | 
LIAGIILLIL | 540 | 141 | 680 | 345 | 143 | 
LLSCISVPV |  |  |  |  |  | IC50 (HLA-A*02:01; [4]): 2.5 nM; IC50 (HLA-A*02:02; [4]): 1.4 nM; IC50 (HLA-A*02:03; [4]): 4.7 nM; IC50 (HLA-A*02:06; [4]): 17 nM; IC50 (HLA-A*68:02; [4]): 15 nM
IIPFIAYFVL | 991 | 715 | 4730 | 852 | 76 | 

Sequence | IC50 (HLA-A*02:01; [1]) [nM] | IC50 (HLA-A*02:02; [1]) [nM] | IC50 (HLA-A*02:03; [1]) [nM] | IC50 (HLA-A*02:06; [1]) [nM] | IC50 (HLA-A*68:02; [1]) [nM] | other results
NMCNSDVSV | 88 | 80 | 30 | 97 | 202 | 
FTEGKINPLL | 162 | 150 | 595 | 86 | 243 | 
FLAHLQWFA |  |  |  |  |  | IC50 (HLA-A*02:01; source organism: SARS-CoV1): 0.1 nM; IC50 (HLA-A*02:02; source organism: SARS-CoV1): 0.1 nM; IC50 (HLA-A*02:03; source organism: SARS-CoV1): 0.21 nM; IC50 (HLA-A*02:06; source organism: SARS-CoV1): 0.57 nM; IC50 (HLA-A*68:02; source organism: SARS-CoV1): 17 nM
FVFNGTSWFI |  |  |  |  |  | IC50 (HLA-A*02:01; source organism: SARS-CoV1): 1.1 nM; IC50 (HLA-A*02:02; source organism: SARS-CoV1): 1 nM; IC50 (HLA-A*02:03; source organism: SARS-CoV1): 2.2 nM; IC50 (HLA-A*02:06; source organism: SARS-CoV1): 0.44 nM; IC50 (HLA-A*68:02; source organism: SARS-CoV1): 0.33 nM
FTSDYPFYV | 1.5 | 2.1 | 3.9 | 3.6 | 1.1 | 
TISGNIYSAL | 1110 | 9.3 | 89 | 2670 | 19 | 
FSTSFYLISI |  |  |  |  |  | IC50 (HLA-A*02:01; [5]): 32 nM; IC50 (HLA-A*02:02; [5]): 2.1 nM; IC50 (HLA-A*02:03; [5]): 53 nM; IC50 (HLA-A*02:06; [5]): 9.2 nM; IC50 (HLA-A*68:02; [5]): 1.8 nM
FSTSAYLISI |  |  |  |  |  | IC50 (HLA-A*02:01; [2]): 9 nM; IC50 (HLA-A*02:02; [2]): 0.68 nM; IC50 (HLA-A*02:03; [2]): 14 nM; IC50 (HLA-A*02:06; [2]): 3.5 nM; IC50 (HLA-A*68:02; [2]): 1.4 nM
YVHEGVSYEV | 83 | 13 | 71 | 9.1 | 14 | 
LMDCIIFES |  |  |  |  |  | IC50 (HLA-A*02:01; [2]): 99 nM; IC50 (HLA-A*02:02; [2]): 30 nM; IC50 (HLA-A*02:03; [2]): 825 nM; IC50 (HLA-A*02:06; [2]): 300 nM; IC50 (HLA-A*68:02; [2]): 425 nM
YQSFLFWFL | 0.76 | 0.38 | 2.5 | 40 | 87 | 
FLAFLLFLVL |  |  |  |  |  | IC50 (HLA-A*02:01; source organism: SARS-CoV1): 11 nM; IC50 (HLA-A*02:02; source organism: SARS-CoV1): 13 nM; IC50 (HLA-A*02:03; source organism: SARS-CoV1): 245 nM; IC50 (HLA-A*02:06; source organism: SARS-CoV1): 2000 nM; IC50 (HLA-A*68:02; source organism: SARS-CoV1): 3810 nM
IVPEFAKQYV | 5 | 10 | 18 | 15 | 3.5 | 
NIISYIILFI | 156 | 123 | 133 | 72 | 25 | 
IISYIILFIL | 580 | 66 | 489 | 3930 | 2090 | 
FICNLLLLFV |  |  |  |  |  | IC50 (HLA-A*02:01; source organism: SARS-CoV1): 2.1 nM; IC50 (HLA-A*02:02; source organism: SARS-CoV1): 2.5 nM; IC50 (HLA-A*02:03; source organism: SARS-CoV1): 15 nM; IC50 (HLA-A*02:06; source organism: SARS-CoV1): 4 nM; IC50 (HLA-A*68:02; source organism: SARS-CoV1): 1070 nM
NVLAWLYAA |  |  |  |  |  | IC50 (HLA-A*02:01; source organism: SARS-CoV1): 9.2 nM; IC50 (HLA-A*02:02; source organism: SARS-CoV1): 7.3 nM; IC50 (HLA-A*02:03; source organism: SARS-CoV1): 15 nM; IC50 (HLA-A*02:06; source organism: SARS-CoV1): 1.6 nM; IC50 (HLA-A*68:02; source organism: SARS-CoV1): 39 nM
